Data taken from US8653242B2, “Therapeutic antibodies against flagellated Pseudomonas aeruginosa” (priority 2010, dated 2014).

What was measured:
Ka02 (MDR P. aeruginosa) = test: Mouse model of pneumonia driven by Ka02; assay type: in vivo, C57 Black mice; conditions: for Animal survival at day 3: Ka02 lung infection, treatment from 1 hr post-infection; for Animal survival at day 3 / survivors at day 3: unchanged at day 9; for survivors at day 3: survivors/animals in group
Procedure: Sixty-one (61) male Adult C57 Black mice (25-30 g, Harlan Nossan, Milan, Italy) were housed in a controlled environment in cages with filter tops in specific pathogen-free conditions. They were briefly anesthetized with inhaled sevorane (Abbot Laboratories) in an oxygenated chamber and placed in a supine position with their heads elevated approximately 30°. Ka02 bacterial inoculums (10^6 cfu's in 50 μl of lactated Ringer's solution) were instilled slowly into the left lung of each animal using a gavage needle.
Mice were randomly divided into 3 experimental treatment groups as follows:
a) Saline-Treated (n=20): saline administered i.v. 1 hr after infection followed by one further i.p. administration at 5 hr post-infection; b) LST-002-Treated (n=21): LST-002 given i.v. 1 hr after infection at a dose of 20 mg/kg followed by one further i.p. administration at 5 hr post-infection at a dose of 15 mg/kg; c) Positive control-Imipenem-Treated (n=20): “Tienam” (Merck, Sharpe and Dohme)] (active ingredient, imipenem, a carbapenem antibiotic) given i.p. 1 hr after infection at a dose of 25 mg/kg followed by further i.p. administrations at 25 mg/kg at time points of 5 hr, 24 hr, 29 hr, 48 hr and 53 hr following infection.
Survival was monitored for all groups every 12 hrs until day 9 post-infection and data depicted in Kaplan-Meier curves (FIG. 18). […] Survival at day 9 was unchanged from survival data observed at day 3, i.e. LST-002 was 240% more efficacious in increasing survival in mice with pneumonia than a currently accepted treatment protocol and increased survival by 700% as compared with untreated mice.

[1] = test system: Ka02 multi-drug resistant P. Aeruginosa strain; test: Antibiogram of Ka02 (Vitek MIC); assay type: cell-based; conditions: Ka02; as to Final (sensitive/resistant call): key: S = antibiotic sensitive; R = antibiotic resistance
[2] = target: P. aeruginosa flagellin type A (Pseudomonas aeruginosa, UniProt P21184); test: ELISA of LST-009 on recombinant flagellin type A; assay type: binding; conditions: 250 ng/well antigen
Chain of P. aeruginosa flagellin type A (P21184 whole entry): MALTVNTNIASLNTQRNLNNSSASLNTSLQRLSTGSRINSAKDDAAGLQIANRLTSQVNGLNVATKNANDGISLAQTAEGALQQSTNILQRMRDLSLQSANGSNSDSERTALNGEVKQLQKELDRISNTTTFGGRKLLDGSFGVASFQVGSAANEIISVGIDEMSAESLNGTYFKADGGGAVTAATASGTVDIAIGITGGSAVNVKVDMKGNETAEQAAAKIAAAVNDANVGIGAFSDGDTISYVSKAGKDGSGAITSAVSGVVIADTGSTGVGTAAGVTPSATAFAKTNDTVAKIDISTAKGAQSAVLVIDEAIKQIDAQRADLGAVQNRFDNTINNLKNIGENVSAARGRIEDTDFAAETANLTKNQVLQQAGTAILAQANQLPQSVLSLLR
Procedure: Two hundred and fifty ng (250 ng) of P. aeruginosa flagellin type A or B (50 μl from 5 μg/ml) were dispensed into each well of ELISA plates (Nunc, cat #442404) and coating allowed to proceed for 2 hours at room temperature with gentle shaking. Plates were then blocked with 200 μl PBS-10% fetal bovine serum (FBS) overnight at 4° C.
To that end, following three washes with PBS-0.05% Tween-20, 50 μl of a goat anti-human IgG (Fc)-HRP (Cat # A80-104P; Bethyl, Tex., USA) was added at a dilution of 1:10,000 in PBS-10% FBS with incubation allowed to proceed for 60 min at room temperature. Following 3 separate washes with PBS-Tween-20 (0.05%) and gentle tapping of plates on paper towels to remove final traces of wash buffer, 50 μl TMB/E substrate solution (Cat #ES001-500 ml; Millipore) was added for 15 min at room temperature. Thereafter, signal was quenched with 50 μl 10% H2SO4 and plates read at 450 nm in a Microtiter plate reader (Anthos MultiRead 400).

Ka02 (flagellin type B) = test: ELISA on formaldehyde-fixed Ka02; assay type: binding, P. aeruginosa; conditions: fixed whole bacteria ELISA, 1 nM mAb
Procedure: (§1) From a single fresh bacterial colony, PA strains 27853 (harboring flagellin type A) or Ka02 (harboring flagellin type B) were grown overnight in 5 ml LB at 37° C. Thereafter, bacterial cultures were centrifuged at 1500 g for 30 min and following removal of the clear supernatant, pellets were washed twice with 20 ml PBS with intervening centrifugation. The final pellet was resuspended in a volume of PBS (˜10 ml) and adjusted to generate an OD600 of ˜0.2 and maintained on ice prior to coating on ELISA plates which were prepared as follows: to the wells of flat-bottomed ELISA plates (Nunc, cat #442404), 50 μl poly-L-lysine (PLL, Sigma Cat # P-1524) of a 1 μg/ml solution was added and plates were incubated for 30 min at room temperature. Thereafter, non-adsorbed PLL was removed. Fifty μl of the appropriate bacterial suspensions from the different strains at 0.2 OD600 nm were added to the PLL-coated ELISA plates. In some wells, a “mixed-bacterial population” was added. To that end, 25 μl of PA 27853 and 25 μl of Ka02 bacterial suspensions were added to the same wells. […]
ELISA plates containing the fixed P. aeruginosa bacteria, were blocked by adding 200 μl PBS-10% FBS for 60 min at room temperature. […] Thereafter, signal was quenched with 50 μA 10% H2SO4 and plates read at 450 nm in a Microtiter plate reader (Anthos MultiRead 400).

[3] = test system: mixed PA27853 and Ka02 bacteria; test: ELISA on mixed fixed bacteria; assay type: binding, P. aeruginosa; conditions: 1 nM mAb; wells coated with half the amount of each strain
Procedure: as §1
ELISA plates containing the fixed P. aeruginosa bacteria, were blocked by adding 200 μl PBS-10% FBS for 60 min at room temperature. […] Thereafter, signal was quenched with 50 μA 10% H2SO4 and plates read at 450 nm in a Microtiter plate reader (Anthos MultiRead 400). […]

[4] = target: T1, flagellin type B strains (PA21 and PA01) (Pseudomonas aeruginosa, UniProt P72151); test: Western blot of P. aeruginosa lysates, flagellin type B strains; assay type: binding; conditions: mAb 10 μg/ml
T1 construct: a panel of blotted P. aeruginosa lysates of type A or B flagellin; endogenous in cells; host or cells: P. aeruginosa strains PA21 (MDR isolate) and PA01 (laboratory strain)
T1 sequence (P72151 whole entry): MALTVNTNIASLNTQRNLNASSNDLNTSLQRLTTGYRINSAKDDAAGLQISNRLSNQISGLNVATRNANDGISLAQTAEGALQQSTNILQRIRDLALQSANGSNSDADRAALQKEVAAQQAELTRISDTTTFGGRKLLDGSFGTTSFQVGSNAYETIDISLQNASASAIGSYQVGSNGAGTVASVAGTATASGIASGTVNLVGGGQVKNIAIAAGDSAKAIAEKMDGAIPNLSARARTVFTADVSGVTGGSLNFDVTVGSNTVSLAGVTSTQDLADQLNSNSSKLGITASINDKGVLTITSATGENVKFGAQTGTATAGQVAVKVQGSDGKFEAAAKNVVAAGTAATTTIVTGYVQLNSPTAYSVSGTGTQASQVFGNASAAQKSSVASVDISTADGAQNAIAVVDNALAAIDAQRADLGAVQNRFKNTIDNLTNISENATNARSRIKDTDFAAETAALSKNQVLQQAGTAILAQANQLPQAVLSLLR
Procedure: (§2) The binding specificity of the chimeric LST-003 mAb was assessed in a western blot experiment as compared to the parental mouse LST-001 mAb. Two identical, yet separate nitrocellulose membranes containing a panel of blotted P. aeruginosa lysates of type A or B flagellin following electrophoresis were hybridized with either mouse LST-001 (FIG. 5A) or chimeric LST-003 (FIG. 5B) mAbs at identical final concentrations (10 μg/ml) with the ensuing detecting secondary peroxidase-conjugated antibodies being anti-mouse Fc or anti-human Fc respectively. Laboratory strains PAK (type A flagellin) or PA01 (type B flagellin) were included as appropriate controls whereas other strains represented multi-drug resistant (MDR) P. aeruginosa strains. […] FIG. 6 also depicts binding of LST-001, LST-002 and LST-003 to immobilized, whole P. aeruginosa as measured in an ELISA and confirms the western blot findings. See below in Example 7 for the ELISA protocol.

[5] = test system: flagellin type A strains (PA141, PA49, PA1, PA409 and PAK); test: Western blot of P. aeruginosa lysates, flagellin type A strains; assay type: binding; conditions: mAb 10 μg/ml
Procedure: as §2

[6] = test system: P. Aeruginosa flagellin type A strain 27853; conditions: ELISA, LST-007 supernatant, LST-008 0.5 μg/ml
[7] = test system: P. Aeruginosa strains harboring flagellin type B (Pa01, Ka01, Ka02, Ka03, Ka04, 25619, NCTC 10662); test: Whole-bacteria binding ELISA, flagellin type B strains; conditions: LST-007 supernatant, LST-008 0.5 μg/ml
Procedure: P. aeruginosa laboratory strains PAK (flagellin type A) and Pa01 (flagellin type B) were grown overnight, diluted to an OD of 0.3 and washed with PBS. Fifty μl bacteria were then plated onto ELISA plates pre-coated with 50 μl poly-L-lysine (1 μg/ml in PBS) which were blocked with PBS-10% fetal calf serum (FCS). Following overnight incubation with bacteria at 4° C., plates were washed with 0.9% saline-0.05% Tween-20 and incubated with 1:2 dilutions of LST-001, LST-002, LST-007 supernatant or purified LST-003 (˜2 μg/ml) for 2 hrs at room temperature. Following washing, secondary goat anti-mouse (LST-001, LST-002) or goat anti-human detecting antibodies (LST-003, LST-007) were added and coloration generated following the addition of TMB substrate and plates read for absorbance (405 nm) following addition of 10% H2SO4.

laboratory strain Pa01 = test: "Sandwich" motility assay, Pa01; assay type: cell-based, P. aeruginosa; conditions: LST-002 0.3-80 μg/ml, even at very low concentrations
[8] = single i.v. injection at 10 mg/kg; preliminary
[9] = test system: MDR P. aeruginosa strain Ka02; test: "Sandwich" motility assay, Ka02; assay type: cell-based; conditions: LST-002 0.3-80 μg/ml, even at very low concentrations
Procedure: Using an alternative in-vitro motility technology, the effects of LST-002 on motility of a MDR P. aeruginosa (PA) strain (Ka02) was performed. In 10 cm plastic culture dishes, a 6 ml underlayer of 0.6% agar in LB was poured and allowed to solidify. During this period, 6 ml of LB was aliquoted into separate tubes to which LST-002 was added at final concentrations 80, 20, 5, 1.25, 0.3 and 0 μg/ml. Thereafter, 10 μA of bacterial culture (containing ˜20-100 cfu) was added followed by 6 mls of 0.6% agar in LB. This ˜12 ml solution was poured onto the solidified agar under-layer. Following solidification, a final upper layer comprising of 6 mls 0.6% agar in LB was added. Plates were transferred to an incubator at 37° C. for 18-22 hr to allow bacterial growth and swarming (i.e. motility) and the diameter of the bacterial colonies measured.

MDR PA strain Ka02 = test: Neutropenic mouse thigh muscle infection model; assay type: in vivo, CD-1 mice
Procedure: Female CD-1 mice weighing 23-27 g (3-5 weeks in age) were rendered neutropenic by split i.p. administration of cyclophosphamide at doses of 150 mg/kg and 100 mg/kg on days 0 and +3. On day 4, 50 μl of freshly-grown Ka02 (2×10^7 cfu's per ml) was injected at a depth of 5 mm into the right thigh muscle (“ipsilateral”) whereas an equivalent volume of saline was injected into the left thigh muscle (“contralateral”). Over an ensuing 3 day period (days 5-7, i.e. 24, 48 and 72 hr following Ka02 administration), the surface areas of the infected thigh muscle lesions were measured with calipers in both ipsilateral and contralateral muscles. Ratios of surface areas of infection lesions of ipsilateral muscles divided by contralateral muscle lesions were calculated with ratios >1 indicative of Ka02. This calculation is called the Ratio-Infection Index (RII). In some mice, LST-002 was administered i.v. at 20 mg/kg, 60 min after administration of Ka02. Further dosing of LST-002 (10 mg/kg) was given i.p. at time points+5 hr, +24 hr and +48 hr after infection.

[10] = ipsilateral/contralateral lesion area, 20 mg/kg i.v. +60 min, 10 mg/kg i.p. +5, +24, +48 hr

C[C@@H](O)[C@H]1C(=O)N2C(C(=O)O)=C(SCCN=CN)C[C@H]12 [Imipenem]
Animal survival at day 3 (Ka02 (MDR P. aeruginosa)): 30%
survivors at day 3 (Ka02 (MDR P. aeruginosa)): 6/20
Final (sensitive/resistant call) [1]: R
Vitek (sensitive/resistant call) ([1]; calls of the two sites): R

B1: LST-003 (antibody, V domains shown)
VH: MMVLSLLYLLTAIPGILSDVQLQESGPGLVKPSQSLSLPCSVTGYSITSGYYWNWIRQFPGNKLEWMGYIRYDGNNNYNPSLKNRISITHDTSKNQFFLKLNYVTTEDTATYYCARGLQFYFDSWGQGTTLTVSS
VL: MVLILLLLWVSGTCGDIVMSQSPSSLAVSGGEKVTMSCKSSQSLLNGSYQKHTLAWYQQKPGQSPKLLIYWASTRESGVPDRFTGSGSGTDFTLTISSVKAEDLAVYYCQQYYSYPWTFGGGTKLEIKR
modifications: human IgG1 constant domains lacking entries
EC50 towards P. aeruginosa flagellin type A [2]: approximately 65 ng/ml
binding to Ka02 (Ka02 (flagellin type B)): failed to bind Ka02
OD as compared to FIG. 16 (full amount of bacteria) [3]: approximately 50%
immunoblot reactivity to flagellin type B strains [4]: not flagellin type B
immunoblot reactivity to flagellin type A strains [5]: stronger binding

B2: LST-007: human IgM monoclonal antibody of U.S. Pat. No. 4,834,976, specific to P. aeruginosa flagellin type B (antibody, V domains shown)
VH: MDWTWRVFFLLAVAPGAHSQVRLVQSGTEVKKPGASVRVSCKASGYTFSNYYMYWVRQAPGQGLEWMAMINPSGGSTRYAQKFQGRVTMTRDTSTSTVYMELSSLRSEDTAVYYCARADSGSYFGYWGQGTLVTVSS
VL: MRVPAQLLGLLLLWLPGARCDIQLTQSPSFLSASVGDRVPITCRASQGISTHLAWYQQKPGKAPKLLIYAASTLQSGVPSRFSGSGSGTEFTLTISSLQPEDSATYYCQQLKSYPLTFGGGTKVEIKR
binding to whole bacteria harboring flagellin type A [6]: not flagellin type A
binding to whole bacteria harboring flagellin type B [7]: specifically binds to all seven P. Aeruginosa bacteria strains tested

B3: LST-002: mouse monoclonal antibody of U.S. Pat. No. 4,834,976, specific to P. aeruginosa flagellin type B (antibody, V domains shown)
VH: EVMLVESGGGLVKPGGSLKLSCAASGFTFSTFTMSWVRQTPEKRLECVATINGGGGNTYYPDSVKGRFTISRDNAKNNLYLQMSSLRSEDTAFYFCSRLYGIYAMDYWGQGTSVTVSS
VL: MKSHTQVFVYMLLWLSGVEGDIVMTQSHIFMSTSVGDRVSITCKASQDVGSAVAWYQQKPGQSPKVLIYWTSTRHTGVPDRFAGSGSGTEFTLTISNVQSEDLADYFCQQYSSYPLTFGAGTKLELKR
size of bacterial colonies (motility) (laboratory strain Pa01): significant reduction in the size of bacterial colonies
Animal survival at day 3 (Ka02 (MDR P. aeruginosa)): 71.4%
increased survival as compared with untreated mice (Ka02 (MDR P. aeruginosa); day 3 / day 9 survival): 700%
more efficacious in increasing survival than currently accepted treatment protocol (imipenem) (Ka02 (MDR P. aeruginosa); day 3 / day 9 survival): 240%
survivors at day 3 (Ka02 (MDR P. aeruginosa)): 15/21
early plasma concentration [8]: ~200 µg/mL
size of bacterial colonies (motility) [9]: significant reduction in the size of bacterial colonies
Ratio-Infection Index (RII) day 5 (MDR PA strain Ka02; [10]): 1.09
Ratio-Infection Index (RII) day 7 (MDR PA strain Ka02; [10]): 0.96
infection lesions in thigh muscle infected with Ka02 (MDR PA strain Ka02; neutropenic mice): totally prevented infection lesions
